In this experiment the target is T1, human angiotensin converting enzyme 2 (ACE2) receptor on HSC-2 oral squamous cell carcinoma cells (human, UniProt Q9BYF1 18-805).
T1 construct: whole, on cells
Put plainly: live cell confocal microscopy of HSC-2 cells with Alexa 595 labeled MASL (legend prints 1.4 pM) and Alexa 647 labeled ACE2 monoclonal antibody. This is colocalisation, not a direct binding assay.

B1: Maackia amurensis seed lectin (MASL) (other)
chain: SDELSFTINNFVPNEADLLFQGEASVSSTGVLQLTRVENGQPQQYSVGRALYAAPVRIWDNTTGSVASFSTSFTFVVKAPNPTITSDGLAFFLAPPDSQIPSGRVSKYLGLFNNSNSDSSNQIVAVEFDTYFGHSYDPWDPNYRHIGIDVNGIESIKTVQWDWINGGVAFATITYLAPNKTLIASLVYPSNQTSFIVAASVDLKEILPEWVRVGFSAATGYPTQVETHDVLSWSFTSTLEANCDAATEN
notes: also called Maacki amurensis seed lectin
Regarding B1, the binding result is reported as “binds”.

(Values after patent publication US20230391837A1 (ROWAN UNIVERSITY, published 2023).)
